± gives the uncertainty stated by the source.
Experiment: self-splicing fitness, log relative to wild type (ln ratio); higher = more splicing; Tetrahymena group I intron in knt gene, E. coli kanamycin selection, DiMSum; sequences stand for … in CUCUCU…GGAGGGAAAAGUUAUCAGGCAUGCACCUGGUAGCUAGUCUUUAAACCAAUAGAUUGCAUCGGUUUAAAAGGCAAGACCGUCAAAUUGCGGGAAAGGGGUCAACAGCCGUUCAGUACCAAGUCUCAGGGGAAACUUUGAGAUGGCCUUGCAAAGGGUAUGGUAAUAAGCUGACGGACAUGGUCCUAACCACGCAGCCAAGUCCUAAGUCAACAGAUCUUCUGUUGAUAUGGAUGCAGUUCACAGACUAAAUGUCGGUCGGGGAAGAUGUAUUCUUCUCAUAAGAUAUAGUCGGACCUCUCCUUAAUGGGAGCUAGCGGAUGAAGUGAUGCAACACUGGAGCCGCUGGGAACUAAUUUGUAUGCGAAAGUAUAUUGAUUAGUUUUGGAGUACUCGUGGUCG
How it was run: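 Library with all eight P1ex-region intron nucleotides randomised, intron inside the knt kanamycin-resistance gene on pET-22b(+), in E. coli BL21(DE3). Cells grew overnight at 37°C or 30°C on LB agar with or without 25 μg/mL kanamycin (plus 100 μg/mL carbenicillin, 50 μM IPTG, 0.2% rhamnose), in six replicate transformations. Pooled colonies were amplicon-sequenced on Illumina HiSeq 2500. DiMSum fitness is the error-weighted combination of wild-type-normalised replicate fold changes, kanamycin versus none.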

Sequence | self-splicing fitness (ln) (30 °C) | self-splicing fitness (ln) (37 °C)
GGCAAGCAAUAUUACGAAGC | -1.69 ± 0.27 | -0.628 ± 0.47
UGGAAGCAAUAUUACGACGU | -1.62 ± 0.15 | -0.761 ± 0.2
ACCUAGCAAUAUUACGCCUG | -2.69 ± 0.19 | -1.66 ± 0.22
CGCUAGCAAUAUUACGUGUU | -4.69 ± 0.29 | -3.17 ± 0.26
GCGCAGCAAUAUUACGAUCA | -1.5 ± 0.14 | -0.594 ± 0.15
GCUGAGCAAUAUUACGAAGA | -2.11 ± 0.21 | -0.81 ± 0.17
CAGAAGCAAUAUUACGGGAA | -3.21 ± 0.23 | -1.37 ± 0.25
AUGUAGCAAUAUUACGUUUG | -3.35 ± 0.23 | -2.72 ± 0.25
UAGAAGCAAUAUUACGCCCA | -0.128 ± 0.15 | 0.21 ± 0.25
UCUAAGCAAUAUUACGCCUU | -3.44 ± 0.36 | -2.32 ± 0.27
UACGAGCAAUAUUACGGUCA | -1.39 ± 0.11 | -0.173 ± 0.11
CGUAAGCAAUAUUACGCGAA | -3.5 ± 0.24 | -3.88 ± 0.39
UCUAAGCAAUAUUACGUUUA |  | -1.69 ± 0.37
CUACAGCAAUAUUACGGAAG | -1.46 ± 0.085 | -0.751 ± 0.11
AGUCAGCAAUAUUACGCGAU | -3.56 ± 0.24 | -1.01 ± 0.14
GACAAGCAAUAUUACGACUU | -0.00142 ± 0.071 | 0.381 ± 0.088
UUUGAGCAAUAUUACGAUCG | -2.23 ± 0.23 | -1.81 ± 0.29
GGCAAGCAAUAUUACGCCAG |  | -2.52 ± 0.41
GACAAGCAAUAUUACGACAA | -0.668 ± 0.11 | -0.951 ± 0.1
UCUGAGCAAUAUUACGACAU | -3.788 ± 0.034 | -2.73 ± 0.044
UCCCAGCAAUAUUACGUAUU | -2.91 ± 0.2 | -3.28 ± 0.28
UAAUAGCAAUAUUACGAGUG | -1.11 ± 0.08 | -0.572 ± 0.09
CCAGAGCAAUAUUACGUUUC | -3.23 ± 0.22 | -3.61 ± 0.31
GUUAAGCAAUAUUACGAGAU | -2.48 ± 0.3 | -1.81 ± 0.35
UGGAAGCAAUAUUACGGCGA | -0.779 ± 0.12 | -0.28 ± 0.16
UCAUAGCAAUAUUACGAGGU | -2.98 ± 0.24 | -3.42 ± 0.32

Sequence | self-splicing fitness (ln) (30 °C) | self-splicing fitness (ln) (37 °C)
CAGGAGCAAUAUUACGUCCA | -2.02 ± 0.16 | -1.08 ± 0.24
CAAUAGCAAUAUUACGAUUA | -1.2 ± 0.12 | -0.352 ± 0.11
AUCCAGCAAUAUUACGAUGG | -3.82 ± 0.27 | -2.85 ± 0.25
CAAAAGCAAUAUUACGUCAU | -2.71 ± 0.17 | -2.48 ± 0.22
AGUAAGCAAUAUUACGUACC | -0.632 ± 0.16 | 0.366 ± 0.21
UAUGAGCAAUAUUACGGAAU | -3.65 ± 0.47 | -2.44 ± 0.38
GACCAGCAAUAUUACGAGCA | -1.07 ± 0.084 | -0.284 ± 0.096
GUGAAGCAAUAUUACGAGAU | -2.25 ± 0.16 | -0.51 ± 0.19
UGCAAGCAAUAUUACGGGUG | -0.825 ± 0.051 | -0.33 ± 0.065
CUCAAGCAAUAUUACGUCAA | -4.09 ± 0.35 | -2.31 ± 0.19
AAUUAGCAAUAUUACGGUCU | -0.43 ± 0.085 | 0.202 ± 0.099
UGUGAGCAAUAUUACGAACG | -0.83 ± 0.075 | 0.261 ± 0.086
CGGAAGCAAUAUUACGUCCU | 0.17 ± 0.12 | 0.626 ± 0.12
GUUCAGCAAUAUUACGAUUC | 0.118 ± 0.095 | 0.523 ± 0.11
AGUAAGCAAUAUUACGUUAG | -1.71 ± 0.33 | 
AGCCAGCAAUAUUACGCGAU | -1.24 ± 0.14 | -2.93 ± 0.32
UUUGAGCAAUAUUACGCAUA |  | -1.01 ± 0.29
ACCAAGCAAUAUUACGACAU | -1.04 ± 0.011 | -0.296 ± 0.032
GGCGAGCAAUAUUACGCUAG | -3.88 ± 0.28 | -2.82 ± 0.23
UCUGAGCAAUAUUACGUUUG | -4.82 ± 0.29 | -1.81 ± 0.15
UCCGAGCAAUAUUACGUAGC | -3.33 ± 0.23 | -2.14 ± 0.28
AUCGAGCAAUAUUACGCCCU | -3.05 ± 0.36 | 
UUGGAGCAAUAUUACGCUUC | -3.11 ± 0.34 | -0.757 ± 0.28
AGAAAGCAAUAUUACGUGAG | -1.39 ± 0.065 | -0.952 ± 0.099
AUGUAGCAAUAUUACGUCAC |  | -2.81 ± 0.47
CCGUAGCAAUAUUACGAACU | -3.64 ± 0.47 | -1.14 ± 0.28

Sequence | self-splicing fitness (ln) (30 °C) | self-splicing fitness (ln) (37 °C)
UCCUAGCAAUAUUACGAUCG | -3.36 ± 0.21 | -2.33 ± 0.26
CGGGAGCAAUAUUACGCUGA | -1.34 ± 0.21 | -2.14 ± 0.31
GGUCAGCAAUAUUACGGUUA | -0.399 ± 0.081 | 0.53 ± 0.076
CGCAAGCAAUAUUACGAUUG | -2.21 ± 0.056 | -1.01 ± 0.07
CUGUAGCAAUAUUACGACUG | -0.156 ± 0.12 | -0.0808 ± 0.17
CUAUAGCAAUAUUACGAAUU | -2.02 ± 0.39 | -2.26 ± 0.46
UUUGAGCAAUAUUACGAAAG |  | -2.49 ± 0.23
AGGAAGCAAUAUUACGGUAU | -2.52 ± 0.28 | -0.707 ± 0.24
AAUGAGCAAUAUUACGCUAC | -3.12 ± 0.27 | -2.84 ± 0.34
ACAGAGCAAUAUUACGAAUC | -2.92 ± 0.36 | 
UUCUAGCAAUAUUACGCAAA | -0.225 ± 0.3 | -1.23 ± 0.27
UUUCAGCAAUAUUACGCUCG | 0.0268 ± 0.097 | 0.385 ± 0.15
GAGAAGCAAUAUUACGUGGU | -3.27 ± 0.17 | -2.32 ± 0.21
UAGAAGCAAUAUUACGGCUG | -0.338 ± 0.11 | 0.218 ± 0.15
UACCAGCAAUAUUACGAUUU | -1.25 ± 0.076 | -0.288 ± 0.075
GAUGAGCAAUAUUACGGCAA | -0.812 ± 0.26 | -2.35 ± 0.37
GCGCAGCAAUAUUACGAUGG | -1.42 ± 0.11 | 0.113 ± 0.16
CGUGAGCAAUAUUACGAUCC | -2.65 ± 0.25 | -0.358 ± 0.25
CGGAAGCAAUAUUACGGUGG | -0.759 ± 0.099 | -0.586 ± 0.1
CUAGAGCAAUAUUACGUUGA | -4.21 ± 0.34 | -3.11 ± 0.38
UGGUAGCAAUAUUACGCUCA | -0.626 ± 0.14 | 0.26 ± 0.18
UGCGAGCAAUAUUACGACGU | -2.92 ± 0.25 | -0.731 ± 0.17
AGGAAGCAAUAUUACGUCAA | -3.36 ± 0.22 | -3.71 ± 0.27
UGCCAGCAAUAUUACGUUUU | -3.79 ± 0.18 | -2.56 ± 0.2
CACCAGCAAUAUUACGUGGU | -3.65 ± 0.1 | -3.16 ± 0.14

— the supplement of paper PMC7877785
